Measured values published in US9988424 (DUKE UNIVERSITY, dated 2018).

Columns and labels:
[1] = target: AE.A244 V1V2 Tags (HIV-1); experiment: ELISA OD405nm, antibody at 33, 11.1 and 1.2 ug/ml
[2] = target: AE.A244 V1V2 Tags (HIV-1); experiment: ELISA OD405nm, bar chart, antibody concentration not given
[3] = target: AE.A244 V1V2 Tags (HIV-1); experiment: ELISA
[4] = target: T1, AE.A244 gp120 delta 11 (HIV-1); experiment: ELISA
T1 construct: also called E.A244gp120Δ11; AE.A244 Δ11 gp120

[5] = target: T2, A.9004SS V1/V2 tags; experiment: ELISA, OD405 at 10 ug/ml
T2 V1V2 tags construct: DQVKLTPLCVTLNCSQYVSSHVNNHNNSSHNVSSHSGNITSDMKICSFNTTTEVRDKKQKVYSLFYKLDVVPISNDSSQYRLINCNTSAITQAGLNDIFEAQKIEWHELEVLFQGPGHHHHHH

[6] = target: AE.con gp140CF; experiment: ELISA, OD405 at 10 ug/ml
[7] = target: B.040 gp140C; experiment: ELISA, OD405 at 10 ug/ml
[8] = target: B.con gp140CF; experiment: ELISA, OD405 at 10 ug/ml
[9] = target: T3, C.1086 gp140; experiment: ELISA, OD405 at 10 ug/ml
T3 construct: also called C.1086gp140C

[10] = target: Con 6 gp120; experiment: ELISA, OD405 at 10 ug/ml
[11] = target: G.con gp140CF; experiment: ELISA, OD405 at 10 ug/ml
[12] = target: C.CAP206 gp140CF.12 (HIV-1); experiment: ELISA, OD405 at 10 ug/ml
[13] = target: T4, gp70 B.CaseA2 V1/V2 (HIV-1 V1V2 on murine leukemia virus gp70); experiment: ELISA, OD405 at 10 ug/ml
T4 construct: also called B.gp70CaseA2 V1/V2; gp70 B.CaseAV1V2
T4 chain: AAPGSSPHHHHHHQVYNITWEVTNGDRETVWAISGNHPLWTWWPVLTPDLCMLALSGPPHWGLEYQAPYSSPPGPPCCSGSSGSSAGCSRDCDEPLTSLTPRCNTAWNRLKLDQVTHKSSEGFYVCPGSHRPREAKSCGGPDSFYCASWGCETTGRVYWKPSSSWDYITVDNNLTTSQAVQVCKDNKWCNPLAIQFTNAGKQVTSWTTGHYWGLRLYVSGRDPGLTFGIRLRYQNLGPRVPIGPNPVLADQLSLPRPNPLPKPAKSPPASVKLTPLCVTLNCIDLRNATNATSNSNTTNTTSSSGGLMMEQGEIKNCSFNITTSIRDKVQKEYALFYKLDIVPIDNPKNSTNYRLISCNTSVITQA

[14] = target: T5, gp70 C.1086 V1/V2 (HIV-1 V1V2 on murine leukemia virus gp70); experiment: ELISA, OD405 at 10 ug/ml
T5 construct: also called C.gp70 1086C V1V2; C.1086gp70V1V2
T5 chain: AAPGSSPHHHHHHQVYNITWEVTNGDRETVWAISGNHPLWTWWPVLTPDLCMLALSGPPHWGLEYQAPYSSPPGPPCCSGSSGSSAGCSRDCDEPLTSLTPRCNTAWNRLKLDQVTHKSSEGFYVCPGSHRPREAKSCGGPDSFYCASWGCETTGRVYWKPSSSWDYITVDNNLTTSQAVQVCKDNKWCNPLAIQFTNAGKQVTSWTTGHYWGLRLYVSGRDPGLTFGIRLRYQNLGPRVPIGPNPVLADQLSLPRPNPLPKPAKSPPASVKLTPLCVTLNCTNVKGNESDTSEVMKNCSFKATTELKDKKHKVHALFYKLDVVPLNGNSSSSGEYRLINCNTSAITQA

[15] = target: T6, AE.97CNG2XF gp140CF (HIV-1); experiment: ELISA, OD405 at 10 ug/ml
T6 construct: also called E.97CNGX2F gp140CF

[16] = target: T7, B.HXB/BAL gp140CFI (HIV-1, UniProt P04578 33-680); experiment: ELISA, OD405 at 10 ug/ml
T7 construct: also called B.HxB/Ba gp140 CFI

[17] = target: T8, SIV CPZ US-1 gp140CF (SIVcpz); experiment: ELISA, OD405 at 10 ug/ml
T8 construct: also called US-1 SIVCPZ gp140CF
T8 chain: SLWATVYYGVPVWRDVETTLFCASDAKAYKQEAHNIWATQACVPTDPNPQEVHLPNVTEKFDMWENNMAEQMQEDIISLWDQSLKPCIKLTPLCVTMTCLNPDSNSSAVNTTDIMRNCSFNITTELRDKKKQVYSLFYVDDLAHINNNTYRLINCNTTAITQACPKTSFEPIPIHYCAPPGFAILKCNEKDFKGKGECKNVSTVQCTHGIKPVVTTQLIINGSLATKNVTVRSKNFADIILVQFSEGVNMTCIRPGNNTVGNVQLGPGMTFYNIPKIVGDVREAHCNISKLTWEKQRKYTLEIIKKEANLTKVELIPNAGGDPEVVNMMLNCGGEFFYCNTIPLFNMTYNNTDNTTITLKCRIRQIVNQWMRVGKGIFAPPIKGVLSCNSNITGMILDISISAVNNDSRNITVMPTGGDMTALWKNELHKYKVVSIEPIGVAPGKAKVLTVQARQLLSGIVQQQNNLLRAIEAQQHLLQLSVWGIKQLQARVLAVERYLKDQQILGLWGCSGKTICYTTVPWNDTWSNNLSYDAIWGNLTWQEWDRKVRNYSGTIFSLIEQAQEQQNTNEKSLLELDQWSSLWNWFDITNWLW

[18] = target: T9, AE.A244 gD+ gp120 (HIV-1); experiment: ELISA
T9 construct: domain: gp120; also called AE.A244 gp120gD+

[19] = target: T10, AE.92TH023 gp120 gD+ (HIV-1); experiment: ELISA
T10 construct: domain: gp120; also called AE.92TH023 gp12 gD+

[20] = target: T6, AE.97CNG2XF gp140CF; experiment: ELISA
[21] = target: T7, B.HXB/BAL gp140CFI; experiment: ELISA
[22] = target: B.9021 gp140C (HIV-1); experiment: ELISA
[23] = target: C.1086 gp120 (HIV-1); experiment: ELISA
[24] = target: T8, SIV CPZ US-1 gp140CF; experiment: ELISA

B1: CH01 RUA 1 (antibody, V domains shown)
VH: EVQLVESGGGVVRPGGSLRLSCAASGFTFDDYGMSWVRQAPGKGLEWVSGINWNGGSTGYADSVKGRFTISRDNAKNSLYLQMNSLRAEDTALYYCARGTDYTIDDQGIRYQGSGTFWYFDLWGRGTLVTVSS
VL: not shown
Does B1 bind [1]?
Result: binds

B2: CH01 RUA 2 (antibody, V domains shown)
VH: EVQLVESGGGVVRPGGSLRLSCAASGFTFDDYGMSWVRQAPGKGLEWVSGINWNGGSTGYADSVKGRFTISRDNAKNSLYLQMNSLRAEDTALYYCARGTDYTIDDQGILYQGSGTFWYFDLWGRGTLVTVSS
VL: not shown
Does B2 bind [2]?
Result: binds

B3: CH01 UA3 (antibody, V domains shown)
VH: EVQLVESGGGVVRPGGSLRLSCAASGFTFDDYGMSWVRQAPGKGLEWVSGINWNGGSTGYADSVKGRFTISRDNAKNSLYLQMNSLRAEDTALYHCARGTDYTIDDQGIHYYGSGTYWYFDLWGRGTLVTVSS
VL: not shown
For B3, which EC50 [3] is on record?
The EC50 was 18 nM.

What about the EC50 [4] of the same binder?
Its EC50 is 9.3 nM.

Does B3 bind [5]?
Result: no binding (tested: 10 ug/ml)

Does B3 bind [6]?
Result: no binding (tested: 10 ug/ml)

Does B3 bind [7]?
Result: no binding (tested: 10 ug/ml)

Does B3 bind [8]?
Result: no binding (tested: 10 ug/ml)

Does B3 bind [9]?
Result: no binding (tested: 10 ug/ml)

Does B3 bind [10]?
Result: no binding (tested: 10 ug/ml)

Does B3 bind [11]?
Result: no binding (tested: 10 ug/ml)

Does B3 bind [12]?
Result: no binding (tested: 10 ug/ml)

Does B3 bind [13]?
Result: no binding (tested: 10 ug/ml)

Does B3 bind [14]?
Result: no binding (tested: 10 ug/ml)

Does B3 bind [15]?
Result: no binding (tested: 10 ug/ml)

Does B3 bind [16]?
Result: no binding (tested: 10 ug/ml)

Does B3 bind [17]?
Result: no binding (tested: 10 ug/ml)

B4: HG107 (antibody, V domains shown)
VH: EVQLVESGGDLVQPGRSLRLSCAASGFTFDDYAMHWVRQAPGKGLEWISGISGNSGSRGYADSVKGRFTISRDNAKNSLYLQMNSLRAEDTALYYCATDGDRSGTTPLDHWGQGTRVTVSS
VL: SYELTQPPSVSVSPGQTARITCSGDALPKNYAYWYQQKSGQAPALVIYEDSKRPSGIPERFSGSSSGTMATLTISGAQVEDEADYYCYSTDSSGTPSFGTGTKVTVL
notes: also called mAb HG107
Which results are given for B4?
EC50 [18]: 0.03 µg/mL; EC50 [19]: 0.04 µg/mL; EC50 [20]: 0.055 µg/mL; binding result [21]: no binding; binding result [22]: no binding; EC50 [23]: 0.03 µg/mL; binding result [24]: no binding

B5: HG120 (antibody, V domains shown)
VH: EVQLVESGGGLVQPGGSLRLSCAASGFTFSSYAMRWVRQAPGKGLEWVSGISGSGGSTYYADSVKGRFTISRDNSKITLYLQMDSLRVEDTAVYYCATAPLSYDSSTDYWGQGTLVTVSS
VL: SYELTQPPSVSVSPGQTARITCSGDALPKKYAYWYQQKSGQAPVLVIYEDSKRPSGIPERFSGSSSGTMATLTISGAQVEDEADYYCYSTDSSGNPRFGRGTKLTVL
notes: also called mAb HG120
With B5 as the binder, how does the EC50 [18] read?
The EC50 was 0.02 µg/mL.

And the EC50 [19]?
Its EC50 is 0.02 µg/mL.

And the EC50 [20]?
Its EC50 is 0.06 µg/mL.

Does B5 bind [21]?
Result: no binding

Does B5 bind [22]?
Result: no binding

And the EC50 [23]?
Its EC50 is 0.02 µg/mL.

Does B5 bind [24]?
Result: no binding
